Tested on: TALE-TadA8e(V106W) (Escherichia coli)
Test: cell_activity
Settings: paired TALE-TadA8e(V106W) without nickase, value is the maximum over three loci

Substance	activity [%]	activity (barely above sequencing error) [%]
MT-ND1 target	< 0.39	–
MT-ND4 target	< 0.39	–
MT-RNR2 target	–	< 0.39

From patent publication US20260207779
